Test results as given in patent publication US20120316071A1.
Values belong to the substance of their own block, whether it stands above or below them.

Key:
[1] = biological target: Recombinant Human DLL4 (R&D Systems Cat#1506-D4/CF) (human) (UniProt Q9NR61); experiment: ECL multispot (MSD) assay, antigen spotted on plate, 20 nM Fab
[2] = biological target: rHuman CD44/Fc Chimera, CF (R&D Systems Cat#3660-CD) (human) (UniProt P16070); experiment: as above
[3] = biological target: rHuman EGF R/Fc Chimera, CF (R&D Systems Cat#344-ER) (human) (UniProt P00533); experiment: as above
[4] = biological target: rHuman IGF-1 sR, CF (R&D Systems Cat#391-GR) (human) (UniProt P08069); experiment: as above
[5] = biological target: rHuman Notch-1/Fc Chimera, CF (R&D Systems Cat#3647-TK) (human) (UniProt P46531); experiment: as above
[6] = biological target: rHuman P-Cadherin/Fc Chimera, CF (R&D Systems Cat#861-PC) (human) (UniProt P22223); experiment: as above
[7] = biological target: Recombinant Human DLL4 (R&D Systems Cat#1506-D4/CF) (human) (UniProt Q9NR61); experiment: ECL Multispot (MSD), antigen spotted, Fab
[8] = biological target: rHuman ErbB2/Fc Chimera, CF (R&D Systems Cat#1129-ER) (human) (UniProt P04626); experiment: ECL Multispot (MSD), antigen spotted, Fab
[9] = biological target: rHuman Erythropoietin R/Fc Chimera, CF (R&D Systems Cat#963-ER) (human) (UniProt P19235); experiment: ECL Multispot (MSD), antigen spotted, Fab
[10] = biological target: rHuman HGF R/c-MET/Fc Chimera, CF (R&D Systems Cat#358-MT/CF) (human) (UniProt P08581); experiment: ECL Multispot (MSD), antigen spotted, Fab
[11] = biological target: rHuman IGF-1 sR, CF (R&D Systems Cat#391-GR) (human) (UniProt P08069); experiment: ECL Multispot (MSD), antigen spotted, Fab
[12] = biological target: rHuman Notch-1/Fc Chimera, CF (R&D Systems Cat#3647-TK) (human) (UniProt P46531); experiment: ECL Multispot (MSD), antigen spotted, Fab
[13] = biological target: rHuman P-Cadherin/Fc Chimera, CF (R&D Systems Cat#861-PC) (human) (UniProt P22223); experiment: ECL Multispot (MSD), antigen spotted, Fab
[14] = biological target: Recombinant Human DLL4 (R&D Systems Cat#1506-D4/CF) (human) (UniProt Q9NR61); experiment: Multispot ECL (MSD), antigen spotted on plate, Fab […]; blank spot 6344
[15] = biological target: rHuman ErbB2/Fc Chimera, CF (R&D Systems Cat#1129-ER) (human) (UniProt P04626); experiment: as above
[16] = biological target: rHuman P-Cadherin/Fc Chimera, CF (R&D Systems Cat#861-PC) (human) (UniProt P22223); experiment: as above
[17] = biological target: Recombinant Human DLL4 (R&D Systems Cat#1506-D4/CF) (human) (UniProt Q9NR61); experiment: Multispot ECL (MSD), antigen spotted on plate, Fab 0.00391 uM; blank spot 576
[18] = biological target: rHuman ErbB2/Fc Chimera, CF (R&D Systems Cat#1129-ER) (human) (UniProt P04626); experiment: as above
[19] = biological target: rHuman P-Cadherin/Fc Chimera, CF (R&D Systems Cat#861-PC) (human) (UniProt P22223); experiment: as above
[20] = biological target: Recombinant Human DLL4 (R&D Systems Cat#1506-D4/CF) (human) (UniProt Q9NR61); experiment: Multispot ECL (MSD), antigen spotted on plate, Fab 0.01563 uM; blank spot 906
[21] = biological target: rHuman ErbB2/Fc Chimera, CF (R&D Systems Cat#1129-ER) (human) (UniProt P04626); experiment: as above
[22] = biological target: rHuman P-Cadherin/Fc Chimera, CF (R&D Systems Cat#861-PC) (human) (UniProt P22223); experiment: as above
[23] = biological target: Recombinant Human DLL4 (R&D Systems Cat#1506-D4/CF) (human) (UniProt Q9NR61); experiment: Multispot ECL (MSD), antigen spotted on plate, Fab 0.0625 uM; blank spot 1738
[24] = biological target: rHuman ErbB2/Fc Chimera, CF (R&D Systems Cat#1129-ER) (human) (UniProt P04626); experiment: as above
[25] = biological target: rHuman P-Cadherin/Fc Chimera, CF (R&D Systems Cat#861-PC) (human) (UniProt P22223); experiment: as above
[26] = biological target: rHuman CD44/Fc Chimera, CF (R&D Systems Cat#3660-CD) (human) (UniProt P16070); experiment: ECL Multispot (MSD), antigen spotted, Fab
[27] = biological target: rHuman EGF R/Fc Chimera, CF (R&D Systems Cat#344-ER) (human) (UniProt P00533); experiment: ECL Multispot (MSD), antigen spotted, Fab
[28] = biological target: rHuman ErbB2/Fc Chimera, CF (R&D Systems Cat#1129-ER) (human) (UniProt P04626); experiment: MSD multispot ECL, antigen spotted on plate; Fab 1.19 uM; blank spot 24999
[29] = biological target: rHuman HGF R/c-MET/Fc Chimera, CF (R&D Systems Cat#358-MT/CF) (human) (UniProt P08581); experiment: as above
[30] = biological target: rHuman IGF-1 sR, CF (R&D Systems Cat#391-GR) (human) (UniProt P08069); experiment: as above
[31] = biological target: rHuman ErbB2/Fc Chimera, CF (R&D Systems Cat#1129-ER) (human) (UniProt P04626); experiment: MSD multispot ECL, antigen spotted on plate; Fab 0.2975 uM; blank spot 5019
[32] = biological target: rHuman HGF R/c-MET/Fc Chimera, CF (R&D Systems Cat#358-MT/CF) (human) (UniProt P08581); experiment: as above
[33] = biological target: rHuman IGF-1 sR, CF (R&D Systems Cat#391-GR) (human) (UniProt P08069); experiment: as above
[34] = biological target: rHuman ErbB2/Fc Chimera, CF (R&D Systems Cat#1129-ER) (human) (UniProt P04626); experiment: MSD multispot ECL, antigen spotted on plate; Fab 0.01859 uM; blank spot 1776
[35] = biological target: rHuman HGF R/c-MET/Fc Chimera, CF (R&D Systems Cat#358-MT/CF) (human) (UniProt P08581); experiment: as above
[36] = biological target: rHuman IGF-1 sR, CF (R&D Systems Cat#391-GR) (human) (UniProt P08069); experiment: as above
[37] = biological target: rHuman ErbB2/Fc Chimera, CF (R&D Systems Cat#1129-ER) (human) (UniProt P04626); experiment: MSD multispot ECL, antigen spotted on plate; Fab 0.07438 uM; blank spot 2504
[38] = biological target: rHuman HGF R/c-MET/Fc Chimera, CF (R&D Systems Cat#358-MT/CF) (human) (UniProt P08581); experiment: as above
[39] = biological target: rHuman IGF-1 sR, CF (R&D Systems Cat#391-GR) (human) (UniProt P08069); experiment: as above
[40] = biological target: rHuman CD44/Fc Chimera, CF (R&D Systems Cat#3660-CD) (human) (UniProt P16070); experiment: ECL (MSD) multispot binding assay, antigen spotted on plate, 20 nM Fab
[41] = biological target: Recombinant Human DLL4 (R&D Systems Cat#1506-D4/CF) (human) (UniProt Q9NR61); experiment: ECL multispot (MSD) binding assay, antigens spotted on plate, 20 nM Fab
[42] = biological target: rHuman CD44/Fc Chimera, CF (R&D Systems Cat#3660-CD) (human) (UniProt P16070); experiment: as above
[43] = biological target: rHuman IGF-1 sR, (IGF-1 sR), CF (R&D Systems Cat#391-GR) (human) (UniProt P08069); experiment: as above
[44] = biological target: rHuman Notch-1/Fc Chimera, CF (R&D Systems Cat#3647-TK) (human) (UniProt P46531); experiment: as above
[45] = biological target: rHuman HGF R/c-MET/Fc Chimera, CF (R&D Systems Cat#358-MT/CF) (human) (UniProt P08581); experiment: ECL (MSD) multispot binding assay, antigen spotted on plate, 20 nM Fab
[46] = biological target: rHuman P-Cadherin/Fc Chimera, CF (R&D Systems Cat#861-PC) (human) (UniProt P22223); experiment: as above
[47] = biological target: rHuman Erythropoietin R/Fc Chimera, CF (R&D Systems Cat#963-ER) (human) (UniProt P19235); experiment: as above

Substance: Fab VH3-23_IGHD2-21*01>3_IGHJ6*01 H100E/S108P V64A & V2-13_IGLJ2*01
- ECL signal/blank ratio (read-out not given) [1]: 2.7
- ECL signal/blank ratio (read-out not given) [2]: 2.2
- ECL signal/blank ratio (read-out not given) [3]: 9.1
- ECL signal/blank ratio (read-out not given) [4]: 1.2
- ECL signal/blank ratio (read-out not given) [5]: 3
- ECL signal/blank ratio (read-out not given) [6]: 30.6

Substance: Fab VH3-23_IGHD3-10*01>3_IGHJ6*01 Y112A & O12_IGKJ1*01
- ECL signal/blank ratio [7]: 1.2
- ECL signal/blank ratio [8]: 1.3
- ECL signal/blank ratio [9]: 1.6
- ECL signal/blank ratio [10]: 0.8
- ECL signal/blank ratio [11]: 1.4
- ECL signal/blank ratio [12]: 1.1
- ECL signal/blank ratio [13]: 1.1

Substance: Fab VH1-46_IGHD2-15*01_IGHJ2*01 & L2_IGKJ1*01
- ECL signal [14]: 27700
- ECL signal [15]: 29600
- ECL signal [16]: 25500
- ECL signal [17]: 1550
- ECL signal [18]: 1670
- ECL signal [19]: 1960
- ECL signal [20]: 4020
- ECL signal [21]: 4500
- ECL signal [22]: 4940
- ECL signal [23]: 8050
- ECL signal [24]: 9030
- ECL signal [25]: 7740

Substance: Fab VH3-23_IGHD3-10*01>3_IGHJ6*01 Y112G & O12_IGKJ1*01
- ECL signal/blank ratio [7]: 2.2
- ECL signal/blank ratio [26]: 2.5
- ECL signal/blank ratio [27]: 2.1
- ECL signal/blank ratio [9]: 1.6
- ECL signal/blank ratio [10]: 2.3
- ECL signal/blank ratio [11]: 2.3
- ECL signal/blank ratio [12]: 3.3
- ECL signal/blank ratio [13]: 1.4

Substance: Fab VH3-23_IGHD2-21*01>3_IGHJ6*01 H100E/S108P/Y113G Y110W & V2-13_IGLJ2*01
- ECL multispot signal (ratio to blank; column not labelled) [41]: 3.9
- ECL multispot signal (ratio to blank; column not labelled) [42]: 2.1
- ECL multispot signal (ratio to blank; column not labelled) [43]: 2.3
- ECL multispot signal (ratio to blank; column not labelled) [44]: 3.2

Substance: Fab VH3-23_IGHD2-21*01>3_IGHJ6*01 H100E/S108P/Y113G/Y111E & V2-13_IGLJ2*01
- ECL signal/blank ratio [47]: 2.9

Second part, the substance after the results:

- ECL signal [28]: 38400
- ECL signal [29]: 45500
- ECL signal [30]: 35200
- ECL signal [31]: 15100
- ECL signal [32]: 17400
- ECL signal [33]: 17400
- ECL signal [34]: 5530
- ECL signal [35]: 4570
- ECL signal [36]: 3780
- ECL signal [37]: 7550
- ECL signal [38]: 6610
- ECL signal [39]: 5800
Substance: Fab VH1-46_IGHD6-13*01_IGHJ4*01 & L2_IGKJ1*01

- ECL signal/blank ratio [40]: 3.4
Substance: Fab VH3-23_IGHD2-21*01>3_IGHJ6*01 H100E/S108P/Y113G/Y111W & V2-13_IGLJ2*01

- ECL signal/blank ratio [45]: 3.9
- ECL signal/blank ratio [46]: 3.3
Substance: Fab VH3-23_IGHD2-21*01>3_IGHJ6*01 H100E/S108P/Y113G/Y110R & V2-13_IGLJ2*01
